These results are taken from patent publication US20170056327A1 (The Methodist Hospital, priority 2015, published 2017).

Series [1] concerns the target MMP2 substrate peptide … (SEQ ID NO:1). The experiment in a line: cell-based or functional assay.
The test system of series [2] is T1, MMP2 substrate peptide AGFSGPLGMWSAGSFG (SEQ ID NO:1).
T1 sequence: AGFSGPLGMWSAGSFG

Series [3] relates to BRAF, phosphor-BRAF, MEK, phosphor-MEK, ERK, phosphor-ERK in A375 melanoma cells. Briefly: Western blot of BRAF pathway proteins after treatment. Conditions: delivered by composite with single cargo; siRNA 100 nM, docetaxel 100 nM. The class given is cell-based, human. On the procedure: The size and zeta potential of the particles were measured by the Zetasizer Nano (Malvern Instruments). The SEM characterization was shown on an ultra-high resolution scanning electron microscope (SEM 230, NovaNano, Hillsboro, Oreg., USA). Western blots were performed using standard protocols on 4%-15% Bio-Rad Mini-Protean TGX Precast Gels (Bio-Rad, Hercules, Calif., USA).
Background: A western blot detects proteins with antibodies after separation by electrophoresis.

Chain of matrix metalloproteinase-2 (MMP-2) enzyme (P08253 110-660): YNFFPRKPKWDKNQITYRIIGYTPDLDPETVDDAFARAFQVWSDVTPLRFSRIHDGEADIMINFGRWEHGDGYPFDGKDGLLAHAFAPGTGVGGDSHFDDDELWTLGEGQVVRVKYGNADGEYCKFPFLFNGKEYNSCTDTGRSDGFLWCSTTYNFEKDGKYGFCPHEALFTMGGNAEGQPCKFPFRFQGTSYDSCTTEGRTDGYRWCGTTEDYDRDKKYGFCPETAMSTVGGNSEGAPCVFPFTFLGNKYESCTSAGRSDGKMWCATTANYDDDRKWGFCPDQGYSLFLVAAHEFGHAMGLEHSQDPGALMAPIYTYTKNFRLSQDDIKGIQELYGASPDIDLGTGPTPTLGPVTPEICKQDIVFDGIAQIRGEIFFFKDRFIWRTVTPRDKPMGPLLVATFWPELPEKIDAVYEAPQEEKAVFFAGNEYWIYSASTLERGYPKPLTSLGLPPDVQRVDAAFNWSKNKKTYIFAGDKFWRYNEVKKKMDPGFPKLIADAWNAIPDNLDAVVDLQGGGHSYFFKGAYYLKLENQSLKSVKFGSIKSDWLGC

In series [1], “matrix metalloproteinase-2 (MMP-2) enzyme” had a cellular uptake in A375 cells of stimuli-release particles (MSV/Peptide NPs) relative to non-stimuli-release particles (MSV/NPs), medium with 2 ug/mL MMP2, 6-hrs' incubation of 1.2 fold and a cellular uptake in A375 cells of stimuli-release particles (MSV/Peptide NPs) relative to non-stimuli-release particles (MSV/NPs), medium with 2 ug/mL MMP2, 24-hrs' incubation of 1.5 fold. Moreover, the “coumarin 6 released into buffer within 6 hrs from MSV/Peptide NPs with MMP2 enzyme (2 ug/mL); without MMP2 cleavage only about 40% was released” value in series [2] is “about 80% of the coumarin 6 was released”.
As for `CC(=O)O[C@@]12CO[C@@H]1C[C@H](O)[C@@]1(C)C(=O)[C@H](O)C3=C(C)[C@@H](OC(=O)[C@H](O)[C@@H](NC(=O)OC(C)(C)C)c4ccccc4)C[C@@](O)([C@@H](OC(=O)c4ccccc4)[C@H]21)C3(C)C` [docetaxel], in series [3], the “effect on protein expression of BRAF pathway” value is “decreased the expression of BRAF, phosphor-BRAF and phosphor-MEK, but increased the expression of phosphor-ERK”.
For the compound “5′-GCUACAGAGAAAUCUCGAU-3′ (listed as RNA, chemistry not given here) [BRAF siRNA]”, the “effect on protein expression of BRAF pathway” value in series [3] was “knockdown BRAF expression and its related phosphor-proteins downstream”.
